Literature values in publication PMC5620257.
pKd: −log10 of the molar value. Read-outs that look alike come from different tables or passages of the source.

Key:
PD1 (Homo sapiens) [1] = target: PD1 (Homo sapiens) (UniProt Q15116)
PD1 (Homo sapiens) [2] = target: PD1 (Homo sapiens) (UniProt Q15116); remark: listed apart in the source

Chain of UniProt Q15116 (Q15116 25-170): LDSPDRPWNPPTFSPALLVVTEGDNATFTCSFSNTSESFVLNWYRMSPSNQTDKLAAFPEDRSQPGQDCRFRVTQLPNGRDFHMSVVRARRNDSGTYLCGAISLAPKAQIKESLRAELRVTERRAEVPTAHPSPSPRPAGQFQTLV

**Q.** With PD-L1 (from UniProt Q9NZQ7) as the substance, how does the pKd (PD1 (Homo sapiens) [1]) read?
**A.** Its pKd is 6.11.

**Q.** What about the pKd (PD1 (Homo sapiens) [2]) of the same substance?
**A.** Its pKd is 4.58.
